Test results: PMC9923014, “BIN2 phosphorylates the Thr280 of CO to restrict its function in promoting Arabidopsis flowering” (Frontiers in Plant Science, 2023)

Molecular target: T1, MBP-BIN2 (Arabidopsis thaliana, UniProt Q39011 1-380)
T1 construct: also called BIN2-MBP; source: E. coli strain Transetta-DE3, purified
T1 sequence (looked up): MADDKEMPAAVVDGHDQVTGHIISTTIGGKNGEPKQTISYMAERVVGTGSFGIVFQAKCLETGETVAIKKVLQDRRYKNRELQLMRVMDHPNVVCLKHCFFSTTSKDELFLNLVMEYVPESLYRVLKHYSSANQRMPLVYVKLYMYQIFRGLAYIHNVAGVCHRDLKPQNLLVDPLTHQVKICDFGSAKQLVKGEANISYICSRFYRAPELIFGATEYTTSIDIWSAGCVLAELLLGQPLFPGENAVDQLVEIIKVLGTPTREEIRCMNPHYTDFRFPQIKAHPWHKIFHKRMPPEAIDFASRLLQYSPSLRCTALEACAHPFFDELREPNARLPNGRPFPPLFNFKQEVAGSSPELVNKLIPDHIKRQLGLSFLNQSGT
Assay: pull-down; MBP pull-down on amylose resin; purified GST-CO incubated with MBP or MBP-BIN2 overnight at 4°C; 20 mM Tris pH 8.0, NaCl, 1 mM EDTA; immunoblot with anti-MBP and anti-GST
Conditions: both partners purified

- binding result: binds
B1: GST-CO (natural protein, Arabidopsis thaliana, UniProt Q39057 1-373, looked up)
chain: MLKQESNDIGSGENNRARPCDTCRSNACTVYCHADSAYLCMSCDAQVHSANRVASRHKRVRVCESCERAPAAFLCEADDASLCTACDSEVHSANPLARRHQRVPILPISGNSFSSMTTTHHQSEKTMTDPEKRLVVDQEEGEEGDKDAKEVASWLFPNSDKNNNNQNNGLLFSDEYLNLVDYNSSMDYKFTGEYSQHQQNCSVPQTSYGGDRVVPLKLEESRGHQCHNQQNFQFNIKYGSSGTHYNDNGSINHNAYISSMETGVVPESTACVTTASHPRTPKGTVEQQPDPASQMITVTQLSPMDREARVLRYREKRKTRKFEKTIRYASRKAYAEIRPRVNGRFAKREIEAEEQGFNTMLMYNTGYGIVPSF
notes: also called CO-GST; source: E. coli strain Transetta-DE3, purified
